Data on 18 variants can be found in the supplement of paper PMC7125110.

The chains are these.
B1: glmS ribozyme (parent)
chain: AUAAAAGCGCCAGAACUACAGAAAUGUAGUUGACGAGGAGGAGGUUUAUCGAAUUUUCGGCGGAUGCCUCCAAA

± gives the standard error. For some assays here: This sample holds only a part of the variants without activity. A value given as a limit tells only on which side of the number the result lay.

Holding throughout (conditions): with glucosamine-6-phosphate
Data set [1] covers variants of B1. Briefly: kcat; higher = faster cleavage; RNA array. Summed up: (§1)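 E. coli RNA polymerase transcribed barcoded ribozyme variants in situ on sequenced MiSeq chips, which were tracked via a hybridised Cy3 probe at 37 °C. Tiles were imaged over ~14 h after glucosamine-6-phosphate (40 μM to 10 mM) in HEPES/KCl/Mg(OAc)2 buffer was flowed in. Normalised per-tile medians were fit to one- or two-exponential decays for kobs, and kcat and KM came from weighted Michaelis–Menten fits.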

In data set [2] the parent is B1. The data set is described as follows: KM; higher = weaker cofactor use; RNA array. Summed up: as §1
The variants in data set [3] derive from B1. The data set is described as follows: self-cleavage kobs at 2500 uM GlcN6P; higher = faster cleavage; RNA array. Put shortly: as §1
The variants in data set [4] derive from B1. The data set is described as follows: self-cleavage kobs at 10000 uM GlcN6P; higher = faster cleavage; RNA array. Put shortly:
as §1

In data set [5] the parent is B1. The data set is described as follows: self-cleavage kobs at 160 uM GlcN6P; higher = faster cleavage; RNA array. Put shortly: as §1
In data set [6] the parent is B1. The data set is described as follows: self-cleavage kobs at 640 uM GlcN6P; higher = faster cleavage; RNA array. Put shortly:
as §1

Variants of B1 are the subject of data set [7]. Briefly: self-cleavage kobs at 40 uM GlcN6P; higher = faster cleavage; RNA array. Summed up: as §1

For orientation: kcat means the number of substrate molecules converted per active site and unit of time at saturation. With U65A C67G C71G, the kcat with glucosamine-6-phosphate [1] is 2.24e-05 ± 6.2e-06 s⁻¹.
For C16U C61A, the catalytic constant (kcat) with glucosamine-6-phosphate [1] was 1.08e-05 ± 2.3e-06 s⁻¹.
As for A33C C70U, the catalytic constant (kcat) with glucosamine-6-phosphate [1] was determined as 1.19e-05 ± 4.5e-06 s⁻¹.
What is called KM is the substrate concentration at which the rate is half of its maximum. Regarding G37C A39U, in the data set with glucosamine-6-phosphate [1], the kcat worked out at 1.36e-05 ± 1e-06 s⁻¹. Moreover, the Michaelis constant (KM) in the data set with glucosamine-6-phosphate [2] stood at 1230 ± 450 µM.
A14U A33U: in the data set with glucosamine-6-phosphate [1], the kcat was 0.000182 ± 2.6e-05 s⁻¹. The “self-cleavage kobs at 2500 uM GlcN6P” value with glucosamine-6-phosphate [3] amounted to 2.81e-05 ± 1e-05 s⁻¹. In the data set with glucosamine-6-phosphate [4], the “self-cleavage kobs at 10000 uM GlcN6P” value was 7.63e-05 ± 9.8e-06 s⁻¹.
Consider A33C U69A, for which, in the data set with glucosamine-6-phosphate [1], the catalytic constant (kcat) is under 1e-05 s⁻¹. In the data set with glucosamine-6-phosphate [5], the “self-cleavage kobs at 160 uM GlcN6P” value was under 1e-05 s⁻¹. Moreover, in the data set with glucosamine-6-phosphate [6], the “self-cleavage kobs at 640 uM GlcN6P” value was under 1e-05 s⁻¹.
Take C11A C16U: in the data set with glucosamine-6-phosphate [1], the kcat is 0.000159 ± 1.5e-05 s⁻¹. Also, in the data set with glucosamine-6-phosphate [2], the KM came out at 1110 ± 340 µM. Besides, in the data set with glucosamine-6-phosphate [6], the “self-cleavage kobs at 640 uM GlcN6P” value turned out to be 6.65e-05 ± 1.5e-05 s⁻¹. In addition, the “self-cleavage kobs at 2500 uM GlcN6P” value in the data set with glucosamine-6-phosphate [3] is 9.79e-05 ± 1.5e-05 s⁻¹. Moreover, the “self-cleavage kobs at 10000 uM GlcN6P” value with glucosamine-6-phosphate [4] was 0.000151 ± 1.8e-05 s⁻¹.
Take C58A U65G: in the data set with glucosamine-6-phosphate [1], the kcat came to 5.13e-05 ± 1.3e-05 s⁻¹. For the same variant, the “self-cleavage kobs at 2500 uM GlcN6P” value with glucosamine-6-phosphate [3] was found to be 4.93e-05 ± 1.3e-05 s⁻¹. For the same variant, the “self-cleavage kobs at 10000 uM GlcN6P” value with glucosamine-6-phosphate [4] amounted to 4.32e-05 ± 1.3e-05 s⁻¹.
Turning to U31A U45G, the kcat in the data set with glucosamine-6-phosphate [1] amounted to 0.0028 ± 0.00084 s⁻¹. In addition, the KM in the data set with glucosamine-6-phosphate [2] stood at 1730 ± 710 µM. Also, the “self-cleavage kobs at 40 uM GlcN6P” value with glucosamine-6-phosphate [7] is 7.39e-05 ± 1.2e-05 s⁻¹. Moreover, the “self-cleavage kobs at 160 uM GlcN6P” value with glucosamine-6-phosphate [5] was 0.000168 ± 4e-05 s⁻¹. Also, the “self-cleavage kobs at 640 uM GlcN6P” value with glucosamine-6-phosphate [6] came out at 0.000882 ± 0.00014 s⁻¹. Besides, the “self-cleavage kobs at 2500 uM GlcN6P” value with glucosamine-6-phosphate [3] turned out to be 0.00203 ± 0.00033 s⁻¹. In the data set with glucosamine-6-phosphate [4], the “self-cleavage kobs at 10000 uM GlcN6P” value amounted to 0.00194 ± 0.00049 s⁻¹.
U65G C68U: the kcat with glucosamine-6-phosphate [1] was determined as 0.00167 ± 0.00057 s⁻¹. Also, in the data set with glucosamine-6-phosphate [7], the “self-cleavage kobs at 40 uM GlcN6P” value amounted to 5.31e-05 ± 8.4e-06 s⁻¹. Moreover, the “self-cleavage kobs at 160 uM GlcN6P” value with glucosamine-6-phosphate [5] turned out to be 0.000159 ± 3.2e-05 s⁻¹. Also, the “self-cleavage kobs at 640 uM GlcN6P” value in the data set with glucosamine-6-phosphate [6] is 0.000304 ± 4.1e-05 s⁻¹. The “self-cleavage kobs at 2500 uM GlcN6P” value with glucosamine-6-phosphate [3] was found to be 0.000758 ± 0.00013 s⁻¹. The “self-cleavage kobs at 10000 uM GlcN6P” value with glucosamine-6-phosphate [4] worked out at 0.00155 ± 0.00018 s⁻¹.
For A12U G43A, in the data set with glucosamine-6-phosphate [1], the catalytic constant (kcat) stood at 0.000218 ± 2.6e-05 s⁻¹. The KM with glucosamine-6-phosphate [2] worked out at 2010 ± 540 µM. The “self-cleavage kobs at 640 uM GlcN6P” value in the data set with glucosamine-6-phosphate [6] worked out at 4.88e-05 ± 1e-05 s⁻¹. Also, the “self-cleavage kobs at 2500 uM GlcN6P” value with glucosamine-6-phosphate [3] was determined as 0.000139 ± 1.8e-05 s⁻¹. Also, the “self-cleavage kobs at 10000 uM GlcN6P” value in the data set with glucosamine-6-phosphate [4] is 0.000173 ± 2.2e-05 s⁻¹.
On to A6C A39G, for which the catalytic constant (kcat) with glucosamine-6-phosphate [1] turned out to be 6.38e-05 ± 7.8e-07 s⁻¹. The KM with glucosamine-6-phosphate [2] is 439 ± 33 µM. Moreover, the “self-cleavage kobs at 2500 uM GlcN6P” value with glucosamine-6-phosphate [3] was 5.42e-05 ± 1.9e-05 s⁻¹. In addition, the “self-cleavage kobs at 10000 uM GlcN6P” value with glucosamine-6-phosphate [4] is 6.11e-05 ± 1.4e-05 s⁻¹.
For the variant G29C U31C, the turnover number (kcat) with glucosamine-6-phosphate [1] came to 0.000387 ± 3.9e-05 s⁻¹. Also, in the data set with glucosamine-6-phosphate [2], the Michaelis-Menten constant (KM) is 3280 ± 690 µM. Besides, the “self-cleavage kobs at 640 uM GlcN6P” value in the data set with glucosamine-6-phosphate [6] turned out to be 5.78e-05 ± 1.8e-05 s⁻¹. For the same variant, the “self-cleavage kobs at 2500 uM GlcN6P” value in the data set with glucosamine-6-phosphate [3] amounted to 0.000184 ± 3.4e-05 s⁻¹. Besides, the “self-cleavage kobs at 10000 uM GlcN6P” value in the data set with glucosamine-6-phosphate [4] stood at 0.000284 ± 4.2e-05 s⁻¹.
On to A42G A53U, for which the kcat in the data set with glucosamine-6-phosphate [1] amounted to 0.0339 ± 0.012 s⁻¹. Also, in the data set with glucosamine-6-phosphate [2], the KM came to 2240 ± 990 µM. Moreover, the “self-cleavage kobs at 40 uM GlcN6P” value in the data set with glucosamine-6-phosphate [7] was 0.000764 ± 0.00011 s⁻¹. Besides, the “self-cleavage kobs at 160 uM GlcN6P” value with glucosamine-6-phosphate [5] was found to be 0.00186 ± 0.00035 s⁻¹. Further, the “self-cleavage kobs at 640 uM GlcN6P” value with glucosamine-6-phosphate [6] is 0.0076 ± 0.0013 s⁻¹. The “self-cleavage kobs at 2500 uM GlcN6P” value with glucosamine-6-phosphate [3] came out at 0.0159 ± 0.0028 s⁻¹. Further, in the data set with glucosamine-6-phosphate [4], the “self-cleavage kobs at 10000 uM GlcN6P” value is 0.0373 ± 0.009 s⁻¹.
As to U54G U65C, the kcat with glucosamine-6-phosphate [1] stood at 0.00111 ± 0.0001 s⁻¹. For the same variant, the Michaelis constant (KM) with glucosamine-6-phosphate [2] is 2390 ± 350 µM. The “self-cleavage kobs at 160 uM GlcN6P” value with glucosamine-6-phosphate [5] came out at 7.61e-05 ± 1.2e-05 s⁻¹. For the same variant, the “self-cleavage kobs at 640 uM GlcN6P” value with glucosamine-6-phosphate [6] was determined as 0.000211 ± 3.4e-05 s⁻¹. Besides, in the data set with glucosamine-6-phosphate [3], the “self-cleavage kobs at 2500 uM GlcN6P” value worked out at 0.000567 ± 9.8e-05 s⁻¹. In the data set with glucosamine-6-phosphate [4], the “self-cleavage kobs at 10000 uM GlcN6P” value is 0.00091 ± 0.00012 s⁻¹.
As to C67G U69G, in the data set with glucosamine-6-phosphate [1], the kcat was under 1e-05 s⁻¹. The “self-cleavage kobs at 160 uM GlcN6P” value with glucosamine-6-phosphate [5] was under 1e-05 s⁻¹. Also, in the data set with glucosamine-6-phosphate [4], the “self-cleavage kobs at 10000 uM GlcN6P” value is under 1e-05 s⁻¹.
For the variant A39C G40U, in the data set with glucosamine-6-phosphate [1], the turnover number (kcat) turned out to be 0.000135 ± 1.1e-05 s⁻¹. In the data set with glucosamine-6-phosphate [2], the KM was 1690 ± 480 µM. The “self-cleavage kobs at 640 uM GlcN6P” value with glucosamine-6-phosphate [6] was 5.01e-05 ± 1.7e-05 s⁻¹. Besides, the “self-cleavage kobs at 2500 uM GlcN6P” value in the data set with glucosamine-6-phosphate [3] is 7.56e-05 ± 9.8e-06 s⁻¹. Also, the “self-cleavage kobs at 10000 uM GlcN6P” value in the data set with glucosamine-6-phosphate [4] came out at 0.000118 ± 1e-05 s⁻¹.
Take U54A U56G: the kcat in the data set with glucosamine-6-phosphate [1] is 0.0107 ± 0.0029 s⁻¹. In addition, the KM with glucosamine-6-phosphate [2] stood at 1740 ± 650 µM. Further, the “self-cleavage kobs at 40 uM GlcN6P” value in the data set with glucosamine-6-phosphate [7] stood at 0.000226 ± 4.9e-05 s⁻¹. Besides, the “self-cleavage kobs at 160 uM GlcN6P” value with glucosamine-6-phosphate [5] came to 0.000857 ± 0.00017 s⁻¹. Moreover, the “self-cleavage kobs at 640 uM GlcN6P” value with glucosamine-6-phosphate [6] turned out to be 0.00363 ± 0.00057 s⁻¹. In the data set with glucosamine-6-phosphate [3], the “self-cleavage kobs at 2500 uM GlcN6P” value was 0.00548 ± 0.00089 s⁻¹. Moreover, the “self-cleavage kobs at 10000 uM GlcN6P” value with glucosamine-6-phosphate [4] turned out to be 0.0131 ± 0.0038 s⁻¹.
